IntAct's records for PubMed 10488108

B1: E3 ubiquitin-protein ligase COP1 (Arabidopsis thaliana (Mouse-ear cress)), P43254 (parent)
chain: MEEISTDPVVPAVKPDPRTSSVGEGANRHENDDGGSGGSEIGAPDLDKDLLCPICMQIIKDAFLTACGHSFCYMCIITHLRNKSDCPCCSQHLTNNQLYPNFLLDKLLKKTSARHVSKTASPLDQFREALQRGCDVSIKEVDNLLTLLAERKRKMEQEEAERNMQILLDFLHCLRKQKVDELNEVQTDLQYIKEDINAVERHRIDLYRARDRYSVKLRMLGDDPSTRNAWPHEKNQIGFNSNSLSIRGGNFVGNYQNKKVEGKAQGSSHGLPKKDALSGSDSQSLNQSTVSMARKKRIHAQFNDLQECYLQKRRQLADQPNSKQENDKSVVRREGYSNGLADFQSVLTTFTRYSRLRVIAEIRHGDIFHSANIVSSIEFDRDDELFATAGVSRCIKVFDFSSVVNEPADMQCPIVEMSTRSKLSCLSWNKHEKNHIASSDYEGIVTVWDVTTRQSLMEYEEHEKRAWSVDFSRTEPSMLVSGSDDCKVKVWCTRQEASVINIDMKANICCVKYNPGSSNYIAVGSADHHIHYYDLRNISQPLHVFSGHKKAVSYVKFLSNNELASASTDSTLRLWDVKDNLPVRTFRGHTNEKNFVGLTVNSEYLACGSETNEVYVYHKEITRPVTSHRFGSPDMDDAEEEAGSYFISAVCWKSDSPTMLTANSQGTIKVLVLAA
partner: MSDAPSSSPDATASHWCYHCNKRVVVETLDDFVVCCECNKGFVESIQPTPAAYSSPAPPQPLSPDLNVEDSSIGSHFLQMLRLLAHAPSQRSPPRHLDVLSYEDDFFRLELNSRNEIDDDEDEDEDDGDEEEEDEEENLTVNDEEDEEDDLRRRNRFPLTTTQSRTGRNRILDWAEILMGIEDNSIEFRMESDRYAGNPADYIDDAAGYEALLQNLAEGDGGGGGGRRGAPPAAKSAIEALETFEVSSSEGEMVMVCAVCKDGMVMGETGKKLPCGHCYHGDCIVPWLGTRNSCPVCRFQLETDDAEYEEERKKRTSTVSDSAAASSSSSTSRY
B2: E3 ubiquitin-protein ligase CIP8 (Arabidopsis thaliana (Mouse-ear cress)), Q9SPL2 (parent)
chain: B1 partner
partner: B1 chain

Variants of: B1
Conditions: with cip8_arath CIP8, Q9SPL2

effect of a mutation on the interaction | Variant
disrupting interaction | C67A;H69A;C72A;C75A

Variants of: B2
Conditions: with cop1_arath COP1, P43254

effect of a mutation on the interaction | Variant
disrupting interaction | C275A;H277A;H280A;C283A
